Tests used:
[1] = target: T1, Tau-biotin PFF (AD-Tau-induced Tau preformed fibrils, biotin-labelled) (human, UniProt P10636-8 1-441, biotin (Sulfo-NHS-LC-Biotin)); assay: ELISA; Tau-biotin PFF and human recombinant LAG3; format not described in the text shown; settings: both partners purified
T1 construct: Tau, human, WT isoform T40 (2N4R), 441 amino acid residues; Fibrillar assembly of many Tau chains; concentrations are monomer equivalents; also called Tau PFF; AD-Tau-induced Tau PFF-biotin; source: E. coli BL21(DE3), purified (HiTrap SP HP); fibrillised with AD-Tau seeds from AD brains, sonicated
T1 sequence (P10636 other isoform, or with tags, fused parts or gaps): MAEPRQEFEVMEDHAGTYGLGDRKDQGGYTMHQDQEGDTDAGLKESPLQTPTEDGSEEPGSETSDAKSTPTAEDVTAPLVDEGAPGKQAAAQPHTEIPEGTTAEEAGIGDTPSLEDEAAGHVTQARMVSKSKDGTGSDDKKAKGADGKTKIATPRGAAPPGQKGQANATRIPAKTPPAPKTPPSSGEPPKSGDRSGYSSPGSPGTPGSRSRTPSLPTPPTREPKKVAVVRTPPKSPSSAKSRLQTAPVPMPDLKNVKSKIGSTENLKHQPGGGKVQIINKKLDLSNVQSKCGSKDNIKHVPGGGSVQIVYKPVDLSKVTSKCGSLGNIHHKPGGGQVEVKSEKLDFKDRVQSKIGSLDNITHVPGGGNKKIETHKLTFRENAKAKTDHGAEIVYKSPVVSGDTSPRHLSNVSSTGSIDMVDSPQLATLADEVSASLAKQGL

[2] = target: Tau oligomers (globular, 30% sucrose fraction), biotin-labelled (human, biotin); assay: cell surface binding assay (streptavidin-alkaline phosphatase staining); SH-SY5Y cells transfected with Lag3 or its deletion mutants; biotin-labelled ligand at different concentrations (monomer equivalent) in DMEM with 10% FBS, 2 h at RT; washed, fixed, bound biotin detected with streptavidin-AP and BCIP/NBT; intensity by ImageJ, KD by GraphPad Prism; settings: one partner purified
[3] = target: amyloid-β (Aβ) PFF; assay: as above; settings: one partner purified

B1: human recombinant LAG3 (receptor)
chain: LQPGAEVPVVWAQEGAPAQLPCSPTIPLQDLSLLRRAGVTWQHQPDSGPPAAAPGHPLAPGPHPAAPSSWGPRPRRYTVLSVGPGGLRSGRLPLQPRVQLDERGRQRGDFSLWLRPARRADAGEYRAAVHLRDRALSCRLRLRLGQASMTASPPGSLRASDWVILNCSFSRPDRPASVHWFRNRGQGRVPVRESPHHHLAESFLFLPQVSPMDSGPWGCILTYRDGFNVSIMYNLTVLGLEPPTPLTVYAGAGSRVGLPCRLPAGVGTRSFLTAKWTPPGGGPDLLVTGDNGDFTLRLEDVSQAQAGTYTCHIHLQEQQLNATVTLAIITVTPKSFGSPGSLGKLLCEVTPVSGQERFVWSSLDTPSQRSFSGPWLEAQEAQLLSQPWQCQLYQGERLLGAAVYFTELSSPGAQRSGRAPGALPAGHL
[1]
  Kd: 3 nM

B2: Lag3 (lymphocyte-activation gene 3), on transfected SH-SY5Y cells (receptor, UniProt Q61790 24-521, looked up)
chain: GPGKELPVVWAQEGAPVHLPCSLKSPNLDPNFLRRGGVIWQHQPDSGQPTPIPALDLHQGMPSPRQPAPGRYTVLSVAPGGLRSGRQPLHPHVQLEERGLQRGDFSLWLRPALRTDAGEYHATVRLPNRALSCSLRLRVGQASMIASPSGVLKLSDWVLLNCSFSRPDRPVSVHWFQGQNRVPVYNSPRHFLAETFLLLPQVSPLDSGTWGCVLTYRDGFNVSITYNLKVLGLEPVAPLTVYAAEGSRVELPCHLPPGVGTPSLLIAKWTPPGGGPELPVAGKSGNFTLHLEAVGLAQAGTYTCSIHLQGQQLNATVTLAVITVTPKSFGLPGSRGKLLCEVTPASGKERFVWRPLNNLSRSCPGPVLEIQEARLLAERWQCQLYEGQRLLGATVYAAESSSGAHSARRISGDLKGGHLVLVLILGALSLFLLVAGAFGFHWWRKQLLLRRFSALEHGIQPFPAQRKIEELERELETEMGQEPEPEPEPQLEPEPRQL
notes: also called FL; Lag3-expressing SH-SY5Y cells; source: SH-SY5Y cells, transiently transfected (Lipofectamine 2000), on cells
[2]
  Kd: 1300 nM
[3]
  Kd: 310 nM
